Test system: CN(CC(=O)O)C(=O)CN
Assay: concentration-dependent cellular uptake, HPLC-MS/MS, mock-corrected, Km
Type: cell-based, Homo sapiens

**Q.** For “hPHT1 (human peptide/histidine transporter 1, SLC15A4) (Homo sapiens; L14A/L15A/L318A/V319A)”, which Km is on record?
**A.** The Km was 1690 ± 300 µM.

**Q.** And the Vmax?
**A.** The Vmax was 0.0001 µmol/min/mg.

**Q.** And the Vmax/Km?
**A.** The Vmax/Km was 0.0592 µL/min/mg.

Reference: publication PMC5826766
